Assays:
[1] = substrate: CSCC[C@H](N)C(=O)O; assay: coupled spectroscopic assay of pyrophosphate release (A340); format: biochemical, Trypanosoma brucei; conditions: 150 nM enzyme, co-substrate ATP, 5 mM MgSO4 and 100 mM KCl in 50 mM HEPES assay buffer, pH 8.0, 37 °C, parenthesis = 95% CI
Text: (§1) coupled spectroscopic assay of pyrophosphate release (A340) on TbAdoMetSyn

[2] = substrate: Nc1ncnc2c1ncn2[C@@H]1O[C@H](COP(=O)(O)OP(=O)(O)OP(=O)(O)O)[C@@H](O)[C@H]1O; assay: as above; format: biochemical, Trypanosoma brucei; conditions: 150 nM enzyme, co-substrate methionine, 5 mM MgSO4 and 100 mM KCl in 50 mM HEPES assay buffer, pH 8.0, 37 °C, parenthesis = 95% CI
Text: as §1

B1: TbAdoMetSyn (Trypanosoma brucei brucei TREU927) (protein)
chain: MSVRQIFFTSEHVSEGHPDKLCDQVSDAVLDACLEQDPLSKVACETCSKTGMVLVFGEITTKAVIDYQKVVRDTVKEIGFDNTEKGLDYRSLNLLVAVEQQSPDIYQGLGDFGGENLGAGDQGMMFGYATNETETLMPLSYELARGLAMTYSELRRNGGLPWARPDAKTQVTVQYEYDTRGGKQLLTPKRVAVILVSAQLDDGVSNETIREDLVKKVISTTIPAKFLDENTKYHLNPSGRFVIGGPHGDAGLTGRKIIVDTYGGWGAHGGGAFSGKDPSKVDRSAAYAARWIAKSLVAAGLADRCLVQLSYAIGVAEPLNIHVDTYGTGKRDDEYILGIVQKNFRLRPYDIIKELDLRRPIYRQTACFGHFGRVDTNGKGGFTWEVPKTLEGLSDVQ
notes: E. coli BL21(DE3); His6-tag removed by TEV protease
With B1 the Km [1] was 0.031 (0.025–0.039) mM, the kcat [1] was 0.19 s⁻¹ and the Km [2] was 0.31 (0.24–0.40) mM. It also gave a kcat [2] of 0.21 s⁻¹.

Source: paper PMC6221367, “A dual regulatory circuit consisting of S-adenosylmethionine decarboxylase protein and its reaction product controls expression of the paralogous activator prozyme in Trypanosoma brucei” (PLoS Pathogens, 2018)
